Reference: paper PMC3213697
Each block holds one substance with its values, some of them ahead of it.

Experiments:
Assay in all cases: SEC; gel filtration chromatography of the refolded precursor proteins after heparin affinity chromatography; peak D, dimer
[1] = target: C313A myostatin precursor protein (UniProt O14793)
[2] = target: C313Y myostatin precursor protein (UniProt O14793)
[3] = target: C374A myostatin precursor protein (UniProt O14793)

stoichiometry N [1]: 2
Substance: C313A myostatin precursor protein (from UniProt O14793 24-375) (natural protein)

stoichiometry N [2]: 2
Substance: C313Y myostatin precursor protein (from UniProt O14793 24-375) (natural protein)

stoichiometry N [3]: 2
Substance: C374A myostatin precursor protein (from UniProt O14793 24-375) (natural protein)
